From publication PMC10681739, “High-throughput data and modeling reveal insights into the mechanisms of cooperative DNA-binding by transcription factor proteins”

T1: ETS1 (Homo sapiens, UniProt P14921)
T1 sequence: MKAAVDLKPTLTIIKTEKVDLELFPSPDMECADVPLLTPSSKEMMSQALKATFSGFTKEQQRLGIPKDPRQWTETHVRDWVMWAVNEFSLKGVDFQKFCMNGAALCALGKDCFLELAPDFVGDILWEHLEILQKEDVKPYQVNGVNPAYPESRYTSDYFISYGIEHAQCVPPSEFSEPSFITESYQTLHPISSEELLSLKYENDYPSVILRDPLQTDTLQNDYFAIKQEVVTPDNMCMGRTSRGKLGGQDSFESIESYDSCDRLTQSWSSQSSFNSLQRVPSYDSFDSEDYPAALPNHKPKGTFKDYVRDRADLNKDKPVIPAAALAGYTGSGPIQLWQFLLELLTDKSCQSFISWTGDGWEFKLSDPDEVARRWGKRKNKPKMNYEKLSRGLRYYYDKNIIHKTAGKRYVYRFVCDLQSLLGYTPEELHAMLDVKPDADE

B1: Table S2 C row 97 (dsDNA)
DNA 1: CGAGGGCGCGCGTCTCGCGGTCCATCCAGCTCAGCA
DNA 2: TGCTGAGCTGGATGGACCGCGAGACGCGCGCCCTCG
B2: Table S2 C row 11 (dsDNA)
DNA 1: AGGTCCTCTGCATTCTGTGGTCACAAACCCAGAGCC
DNA 2: GGCTCTGGGTTTGTGACCACAGAATGCAGAGGACCT
B3: Table S2 C row 61 (dsDNA)
DNA 1: TGCTCTCGGCCTGGCTGTGGGCGGGTGGCCATCAGT
DNA 2: ACTGATGGCCACCCGCCCACAGCCAGGCCGAGAGCA
B4: Table S2 C row 144 (dsDNA)
DNA 1: ACCGTCAATCTCGACACCGCGGAGCACAATGCGTGC
DNA 2: GCACGCATTGTGCTCCGCGGTGTCGAGATTGACGGT
B5: Table S2 B row 1682 (dsDNA)
DNA 1: CTTGTTCTATTTCCTGTTTGTGCTGAGTGACTGTCT
DNA 2: AGACAGTCACTCAGCACAAACAGGAAATAGAACAAG
B6: Table S2 B row 614 (dsDNA)
DNA 1: GAGGACTTCCGGGTGGGTGTGATATCTACGGGCCCG
DNA 2: CGGGCCCGTAGATATCACACCCACCCGGAAGTCCTC
B7: Table S2 C row 195 (dsDNA)
DNA 1: GCTGCTGACTGCCCCTGAGGTTAGAGATTGACTAGA
DNA 2: TCTAGTCAATCTCTAACCTCAGGGGCAGTCAGCAGC
B8: Table S2 C row 165 (dsDNA)
DNA 1: ATCAGCGTGGCTGCTGCCGCAGAACAAGCCACGCTT
DNA 2: AAGCGTGGCTTGTTCTGCGGCAGCAGCCACGCTGAT
B9: Table S2 C row 90 (dsDNA)
DNA 1: ACTGAAAATCTGCCTTGTGGCTGCTTCTGGTACACA
DNA 2: TGTGTACCAGAAGCAGCCACAAGGCAGATTTTCAGT
B10: Table S2 C row 19 (dsDNA)
DNA 1: GACAAATCAAATGCCACCGCAGAGTTTACTCGAGTT
DNA 2: AACTCGAGTAAACTCTGCGGTGGCATTTGATTTGTC
B11: Table S2 C row 185 (dsDNA)
DNA 1: GCAGAAATATGCTGAACCACAACTGAAGGTGGCTGA
DNA 2: TCAGCCACCTTCAGTTGTGGTTCAGCATATTTCTGC
B12: Table S2 C row 127 (dsDNA)
DNA 1: CCGCCCTCGGTCCCCACCGCGGAGGACTCTCTCAAG
DNA 2: CTTGAGAGAGTCCTCCGCGGTGGGGACCGAGGGCGG
B13: Table S2 C row 29 (dsDNA)
DNA 1: TGGCCATGGCCTATGACCGCTATGTGGCCATCTGCT
DNA 2: AGCAGATGGCCACATAGCGGTCATAGGCCATGGCCA
B14: Table S2 C row 95 (dsDNA)
DNA 1: TGTCTCATCAGCCAGGCCACAAACGCGATGTTTACA
DNA 2: TGTAAACATCGCGTTTGTGGCCTGGCTGATGAGACA
B15: Table S2 B row 703 (dsDNA)
DNA 1: GCCGGGCACTTCCTGTGGAGGCCGAAGCGGGTGCGC
DNA 2: GCGCACCCGCTTCGGCCTCCACAGGAAGTGCCCGGC
B16: Table S2 C row 66 (dsDNA)
DNA 1: TCCTGAGTGCTGGGAACCGCAGCGCCACATGCACCC
DNA 2: GGGTGCATGTGGCGCTGCGGTTCCCAGCACTCAGGA
B17: Table S2 B row 649 (dsDNA)
DNA 1: TTATTTCCGGTGTTGATCTTTTTATTGGTACCAGGC
DNA 2: GCCTGGTACCAATAAAAAGATCAACACCGGAAATAA
B18: Table S2 C row 147 (dsDNA)
DNA 1: GGCCTCTGAGGAGCAGCCGCAGGAGGAGGAGGAGGT
DNA 2: ACCTCCTCCTCCTCCTGCGGCTGCTCCTCAGAGGCC
B19: Table S2 C row 126 (dsDNA)
DNA 1: TCCACGCCCCGGCGCTGCGGGCACCGAGTAAAACGC
DNA 2: GCGTTTTACTCGGTGCCCGCAGCGCCGGGGCGTGGA
B20: Table S2 C row 17 (dsDNA)
DNA 1: GGGGTGTACACTAGCTGCGGTCTGATTTAGCCCTTT
DNA 2: AAAGGGCTAAATCAGACCGCAGCTAGTGTACACCCC
B21: Table S2 C row 104 (dsDNA)
DNA 1: TCTCCCAGCGTCTGATGTGGCTTCGGTGTCAGACAT
DNA 2: ATGTCTGACACCGAAGCCACATCAGACGCTGGGAGA
B22: Table S2 C row 7 (dsDNA)
DNA 1: AAATAGCGCAGGTCAACCACAGACCCCAGCACTGCA
DNA 2: TGCAGTGCTGGGGTCTGTGGTTGACCTGCGCTATTT
B23: Table S2 C row 9 (dsDNA)
DNA 1: CATGTGAGCGACTGGGCCGCAGCCATCAGCCTCCTG
DNA 2: CAGGAGGCTGATGGCTGCGGCCCAGTCGCTCACATG
B24: Table S2 C row 30 (dsDNA)
DNA 1: TGAAATTTTTCTTTTTGTGGTCAGTAATCCCAAAAA
DNA 2: TTTTTGGGATTACTGACCACAAAAAGAAAAATTTCA
B25: Table S2 B row 1920 (dsDNA)
DNA 1: ACATTCTTCCGGTTGGACCTCCGCGATCAGCGCTGT
DNA 2: ACAGCGCTGATCGCGGAGGTCCAACCGGAAGAATGT
B26: Table S2 C row 169 (dsDNA)
DNA 1: TGGGCATGCGCGGCGCGCGGTTGGCACTGGCTGCGA
DNA 2: TCGCAGCCAGTGCCAACCGCGCGCCGCGCATGCCCA
B27: Table S2 C row 194 (dsDNA)
DNA 1: TCGGGAACGTGGGGCTGCGGCCGCCCATGGTGCCCC
DNA 2: GGGGCACCATGGGCGGCCGCAGCCCCACGTTCCCGA
B28: Table S2 C row 132 (dsDNA)
DNA 1: GGCCTGATAGCAATGGCCACAAACACAGCAAGCCAC
DNA 2: GTGGCTTGCTGTGTTTGTGGCCATTGCTATCAGGCC
B29: Table S2 C row 111 (dsDNA)
DNA 1: CCAGCTGTACTGAGTTGAGGTTTTTCTGACCCTCAG
DNA 2: CTGAGGGTCAGAAAAACCTCAACTCAGTACAGCTGG
B30: Table S2 C row 145 (dsDNA)
DNA 1: TGTGGCTGCCCTCAGACCACAAACCACCAGCCCTAT
DNA 2: ATAGGGCTGGTGGTTTGTGGTCTGAGGGCAGCCACA
B31: Table S2 C row 160 (dsDNA)
DNA 1: GCCAGCCTGGGCCGGGCCACAAGAACAAGGAATGTT
DNA 2: AACATTCCTTGTTCTTGTGGCCCGGCCCAGGCTGGC
B32: Table S2 C row 188 (dsDNA)
DNA 1: GGAGATAGCCTAGGCTGTGGTTTTTCAGAGAAACCT
DNA 2: AGGTTTCTCTGAAAAACCACAGCCTAGGCTATCTCC
B33: Table S2 C row 135 (dsDNA)
DNA 1: GGGTCCCGGGGACCCTGCGGGCTCCGAGTAGTCGTA
DNA 2: TACGACTACTCGGAGCCCGCAGGGTCCCCGGGACCC
B34: Table S2 C row 189 (dsDNA)
DNA 1: CCCTGGGGTCCCTTTGCCGCAGTTCCACATCTGCAG
DNA 2: CTGCAGATGTGGAACTGCGGCAAAGGGACCCCAGGG
B35: Table S2 C row 45 (dsDNA)
DNA 1: GCGGGGTTGGGAGGCTGCGGGAGTTTGCGTCCCCTC
DNA 2: GAGGGGACGCAAACTCCCGCAGCCTCCCAACCCCGC
B36: Table S2 C row 164 (dsDNA)
DNA 1: GAGCGGAGACAGAACACCGCACACCCAGCGTCCCAA
DNA 2: TTGGGACGCTGGGTGTGCGGTGTTCTGTCTCCGCTC
B37: Table S2 C row 109 (dsDNA)
DNA 1: CAAGCCCAAGAACGCTGTGGTTTTTGCAGACTCATA
DNA 2: TATGAGTCTGCAAAAACCACAGCGTTCTTGGGCTTG
B38: Table S2 C row 142 (dsDNA)
DNA 1: CCTAAGAGTAAGCTAACCACAGGGATTCTTTTGTAG
DNA 2: CTACAAAAGAATCCCTGTGGTTAGCTTACTCTTAGG
B39: Table S2 C row 35 (dsDNA)
DNA 1: GTAGCTGTAACTGCCACCGCGATGCCGAAGGCGCCC
DNA 2: GGGCGCCTTCGGCATCGCGGTGGCAGTTACAGCTAC
B40: Table S2 C row 140 (dsDNA)
DNA 1: CCACGGCCCGGTGCCTGTGGTCCCCTCCCCGAGGGT
DNA 2: ACCCTCGGGGAGGGGACCACAGGCACCGGGCCGTGG
B41: Table S2 C row 94 (dsDNA)
DNA 1: CCCAAGCCCGCGGGCTGCGGGCGCTGATTGGGCGGC
DNA 2: GCCGCCCAATCAGCGCCCGCAGCCCGCGGGCTTGGG
B42: Table S2 C row 193 (dsDNA)
DNA 1: GCTCCTAGATGGCTCTGTGGGCAGGTGCTGGCCAAG
DNA 2: CTTGGCCAGCACCTGCCCACAGAGCCATCTAGGAGC

The binders below were run against T1, ETS1 (assay: gcPBM; 1 nM ETS1). Settings: tags: N-terminal GST (pDEST15), kept (PMC6008103); label: surface-attached array probe.
In the case of B1, the binding signal is reported as 331 PBM fluorescence, median of replicate spots.
With B2 the binding signal was 347 PBM fluorescence, median of replicate spots.
B3 was tested, and the binding signal was 327 PBM fluorescence, median of replicate spots.
B4 was tested, and the binding signal was 352 PBM fluorescence, median of replicate spots.
With B5 the binding signal was 15900 PBM fluorescence, median of replicate spots.
B6 was tested, and the binding signal was 17700 PBM fluorescence, median of replicate spots.
B7 was tested, and the binding signal was 325 PBM fluorescence, median of replicate spots.
B8 was tested, and the binding signal was 345 PBM fluorescence, median of replicate spots.
For B9, the binding signal was 355 PBM fluorescence, median of replicate spots.
For B10, the binding signal was 343 PBM fluorescence, median of replicate spots.
For B11, the binding signal was 345 PBM fluorescence, median of replicate spots.
For B12, the binding signal was 352 PBM fluorescence, median of replicate spots.
For B13, the binding signal was 340 PBM fluorescence, median of replicate spots.
B14 was tested, and the binding signal was 338 PBM fluorescence, median of replicate spots.
B15 was tested, and the binding signal was 17200 PBM fluorescence, median of replicate spots.
For B16, the binding signal was 341 PBM fluorescence, median of replicate spots.
In the case of B17, the binding signal is reported as 43000 PBM fluorescence, median of replicate spots.
With B18 the binding signal was 353 PBM fluorescence, median of replicate spots.
For B19, the binding signal was 327 PBM fluorescence, median of replicate spots.
For B20, the binding signal was 351 PBM fluorescence, median of replicate spots.
B21 was tested, and the binding signal was 352 PBM fluorescence, median of replicate spots.
With B22 the binding signal was 355 PBM fluorescence, median of replicate spots.
With B23 the binding signal was 350 PBM fluorescence, median of replicate spots.
B24 was tested, and the binding signal was 339 PBM fluorescence, median of replicate spots.
With B25 the binding signal was 16500 PBM fluorescence, median of replicate spots.
For B26, the binding signal was 336 PBM fluorescence, median of replicate spots.
For B27, the binding signal was 335 PBM fluorescence, median of replicate spots.
B28 was tested, and the binding signal was 348 PBM fluorescence, median of replicate spots.
With B29 the binding signal was 336 PBM fluorescence, median of replicate spots.
B30 was tested, and the binding signal was 352 PBM fluorescence, median of replicate spots.
B31 was tested, and the binding signal was 322 PBM fluorescence, median of replicate spots.
In the case of B32, the binding signal is reported as 350 PBM fluorescence, median of replicate spots.
For B33, the binding signal was 332 PBM fluorescence, median of replicate spots.
For B34, the binding signal was 346 PBM fluorescence, median of replicate spots.
For B35, the binding signal was 339 PBM fluorescence, median of replicate spots.
In the case of B36, the binding signal is reported as 352 PBM fluorescence, median of replicate spots.
For B37, the binding signal was 353 PBM fluorescence, median of replicate spots.
B38 was tested, and the binding signal was 351 PBM fluorescence, median of replicate spots.
For B39, the binding signal was 324 PBM fluorescence, median of replicate spots.
B40 was tested, and the binding signal was 328 PBM fluorescence, median of replicate spots.
B41 was tested, and the binding signal was 346 PBM fluorescence, median of replicate spots.
For B42, the binding signal was 347 PBM fluorescence, median of replicate spots.
